The results in this text go back to publication PMC3828522.

For the assay, the target named is biotin-YY1 spacer peptide (human) (UniProt P25490). The experiment in a line: SPR.
Sequence of biotin-YY1 spacer peptide (human) (P25490 199-228): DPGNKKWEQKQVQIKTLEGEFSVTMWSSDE

Sequence of SFMBT2 4MBT domain, human (domain or fragment) (Q5VUG0 whole entry, the tested form may be a part): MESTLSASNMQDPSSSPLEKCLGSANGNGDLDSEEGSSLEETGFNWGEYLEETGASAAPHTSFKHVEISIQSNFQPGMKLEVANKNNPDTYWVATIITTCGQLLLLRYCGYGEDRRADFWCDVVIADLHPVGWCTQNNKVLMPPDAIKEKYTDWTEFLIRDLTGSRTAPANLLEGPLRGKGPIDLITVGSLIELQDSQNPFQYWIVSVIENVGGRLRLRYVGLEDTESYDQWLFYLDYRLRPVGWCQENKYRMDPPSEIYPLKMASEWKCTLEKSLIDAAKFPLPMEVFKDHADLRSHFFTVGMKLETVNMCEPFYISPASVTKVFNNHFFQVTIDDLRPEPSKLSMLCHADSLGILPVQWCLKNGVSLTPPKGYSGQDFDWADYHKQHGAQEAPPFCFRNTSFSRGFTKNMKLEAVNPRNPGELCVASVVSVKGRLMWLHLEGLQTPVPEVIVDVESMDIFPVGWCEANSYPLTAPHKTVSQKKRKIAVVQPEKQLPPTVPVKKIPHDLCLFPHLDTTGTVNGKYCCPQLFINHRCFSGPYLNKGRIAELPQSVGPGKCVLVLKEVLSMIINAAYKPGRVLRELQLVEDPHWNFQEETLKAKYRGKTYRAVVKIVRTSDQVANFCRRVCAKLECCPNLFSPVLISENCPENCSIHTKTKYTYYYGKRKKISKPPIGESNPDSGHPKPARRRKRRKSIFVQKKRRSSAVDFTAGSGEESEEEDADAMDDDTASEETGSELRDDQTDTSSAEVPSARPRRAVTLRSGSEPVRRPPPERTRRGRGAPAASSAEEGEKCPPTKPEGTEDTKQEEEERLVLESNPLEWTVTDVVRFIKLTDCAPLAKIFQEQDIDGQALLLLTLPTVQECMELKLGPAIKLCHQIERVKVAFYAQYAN

Turning to “SFMBT2 4MBT domain, human (domain or fragment)”, the fold lower affinity than L3MBTL2 and MBTD1 is 2 fold; the fold weaker affinity than the Drosophila complex came to 50 fold.
